Experimental data: doi:10.1101/2021.02.17.431757 (bioRxiv, 2021)

Molecular target: GST-TopBP1 (aa 32-1522) His, recombinant (UniProt Q92547 32-1522)
Assay: pull-down

Chain of GST-TopBP1 (aa 32-1522) His, recombinant (Q92547 32-1522): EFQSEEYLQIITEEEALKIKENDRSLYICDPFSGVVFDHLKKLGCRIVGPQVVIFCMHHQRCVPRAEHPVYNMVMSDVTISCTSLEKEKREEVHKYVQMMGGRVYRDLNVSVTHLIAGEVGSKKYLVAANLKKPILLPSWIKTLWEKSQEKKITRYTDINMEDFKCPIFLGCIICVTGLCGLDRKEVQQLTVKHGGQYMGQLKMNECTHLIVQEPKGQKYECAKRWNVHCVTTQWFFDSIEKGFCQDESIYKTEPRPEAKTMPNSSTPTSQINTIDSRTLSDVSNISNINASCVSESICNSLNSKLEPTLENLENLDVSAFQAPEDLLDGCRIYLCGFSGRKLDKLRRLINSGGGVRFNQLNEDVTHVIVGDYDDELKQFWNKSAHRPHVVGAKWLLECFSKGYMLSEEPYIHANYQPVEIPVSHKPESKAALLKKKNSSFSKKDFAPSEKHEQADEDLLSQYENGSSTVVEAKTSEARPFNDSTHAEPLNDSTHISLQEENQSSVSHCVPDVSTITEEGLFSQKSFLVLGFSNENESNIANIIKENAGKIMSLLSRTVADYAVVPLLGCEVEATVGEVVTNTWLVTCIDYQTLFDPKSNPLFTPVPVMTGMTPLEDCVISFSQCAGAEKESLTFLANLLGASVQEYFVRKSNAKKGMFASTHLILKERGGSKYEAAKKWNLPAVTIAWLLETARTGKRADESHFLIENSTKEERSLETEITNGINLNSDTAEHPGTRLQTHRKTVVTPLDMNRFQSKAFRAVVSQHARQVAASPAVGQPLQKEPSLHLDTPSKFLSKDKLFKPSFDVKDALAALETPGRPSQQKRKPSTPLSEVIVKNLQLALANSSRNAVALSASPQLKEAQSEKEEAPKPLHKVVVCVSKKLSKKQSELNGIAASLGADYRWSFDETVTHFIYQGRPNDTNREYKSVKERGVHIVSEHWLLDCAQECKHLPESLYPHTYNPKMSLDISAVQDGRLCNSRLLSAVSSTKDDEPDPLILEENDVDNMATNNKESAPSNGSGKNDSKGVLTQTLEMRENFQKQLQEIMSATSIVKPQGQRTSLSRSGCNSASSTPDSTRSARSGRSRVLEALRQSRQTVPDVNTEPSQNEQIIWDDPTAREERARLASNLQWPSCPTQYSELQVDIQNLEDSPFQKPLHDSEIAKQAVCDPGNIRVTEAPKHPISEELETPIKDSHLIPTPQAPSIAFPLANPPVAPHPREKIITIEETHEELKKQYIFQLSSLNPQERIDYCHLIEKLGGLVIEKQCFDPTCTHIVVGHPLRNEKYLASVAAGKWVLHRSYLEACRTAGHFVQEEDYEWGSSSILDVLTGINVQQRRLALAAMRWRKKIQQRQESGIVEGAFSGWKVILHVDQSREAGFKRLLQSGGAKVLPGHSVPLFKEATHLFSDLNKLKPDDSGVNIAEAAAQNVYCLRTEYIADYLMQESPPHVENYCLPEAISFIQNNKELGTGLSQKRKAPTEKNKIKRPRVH

B1: His-E2-S23D (amino acids 1-200), recombinant (domain or fragment, human papillomavirus 16 (HPV16), UniProt P03120 1-200, looked up)
chain: METLCQRLNVCQDKILTHYENDDTDLRDHIDYWKHMRLECAIYYKAREMGFKHINHQVVPTLAVSKNKALQAIELQLTLETIYNSQYSNEKWTLQDVSLEVYLTAPTGCIKKHGYTVEVQFDGDICNTMHYTNWTHIYICEEASVTVVEGQVDYYGLYYVHEGIRTYFVQFKDDAEKYSKNKVWEVHAGGQVILCPTSVF
B1: binds.
